B1: Tmod2_(1-346) (domain or fragment)
chain: MALPFQKGLEKYKNIDEDELLGKLSEEELKQLENVLDDLDPESATLPAGFRQKDQTQKAATGPFDREHLLMYLEKEALEQKDREDFVPFTGEKKGRVFIPKEKPVETRKEEKVTLDPELEEALASASDTELYDLAAVLGVHNLLNNPKFDEETTNGEGRKGPVRNVVKGEKAKPVFEEPPNPTNVEASLQQMKANDPSLQEVNLNNIKNIPIPTLKEFAKSLETNTHVKKFSLAATRSNDPVALAFAEMLKVNKTLKSLNVESNFITGTGILALVEALRENDTLTEIKIDNQRQQLGTAVEMEIAQMLEENSRILKFGYQFTKQGPRTRVAAAITKNNDLVRKKRV
B2: Tmod2[L73D] (natural protein)
chain: MALPFQKGLEKYKNIDEDELLGKLSEEELKQLENVLDDLDPESATLPAGFRQKDQTQKAATGPFDREHLLMYDEKEALEQKDREDFVPFTGEKKGRVFIPKEKPVETRKEEKVTLDPELEEALASASDTELYDLAAVLGVHNLLNNPKFDEETTNGEGRKGPVRNVVKGEKAKPVFEEPPNPTNVEASLQQMKANDPSLQEVNLNNIKNIPIPTLKEFAKSLETNTHVKKFSLAATRSNDPVALAFAEMLKVNKTLKSLNVESNFITGTGILALVEALRENDTLTEIKIDNQRQQLGTAVEMEIAQMLEENSRILKFGYQFTKQGPRTRVAAAITKNNDLVRKKRVEGDRR

Molecular target: G-actin (WT α-skeletal muscle actin from chicken) (chicken, UniProt P68139 1-377)
Assay: atomic force microscopy

Binder	peak value of unbinding force [pN]
B1	64 ± 3.6
B2	105 ± 2.2

From publication PMC5762396 (Archives of biochemistry and biophysics, 2017)
